Literature values as cited in paper PMC5490247.
Read-outs that look alike come from different tables or passages of the source.

What was measured:
[1] = biological target: IL-6R (Homo sapiens) (UniProt P08887)
[2] = biological target: IL-6R (Homo sapiens) (UniProt P08887); remark: listed apart in the source

Chain of UniProt P08887 (P08887 20-355): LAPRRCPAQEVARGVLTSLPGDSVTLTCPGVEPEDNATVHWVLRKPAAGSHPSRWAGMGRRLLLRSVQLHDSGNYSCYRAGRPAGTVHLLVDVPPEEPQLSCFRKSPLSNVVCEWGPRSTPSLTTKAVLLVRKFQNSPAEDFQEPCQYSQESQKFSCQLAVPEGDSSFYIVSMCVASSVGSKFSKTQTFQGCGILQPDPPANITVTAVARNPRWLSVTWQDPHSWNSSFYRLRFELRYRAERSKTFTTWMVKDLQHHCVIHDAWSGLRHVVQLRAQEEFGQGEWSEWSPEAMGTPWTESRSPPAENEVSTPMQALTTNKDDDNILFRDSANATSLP

Row | Substance | Kd [1] [nM] | Kd [2] [nM]
1 | IL-6 (from UniProt P05231) | 1 | –
2 | Tocilizumab | – | 2.54
